The results in this text go back to patent WO2013041865A1.

The target in experiment [1] is … HLA-A*01 complex (MAGE-3 peptide, soluble biotinylated pHLA). The experiment can be described thus: SPR (BIAcore) method of Example 3.
Experiment [2] has the same target. Description: SPR (BIAcore 3000); biotinylated pHLA on streptavidin chip, soluble TCR injected, 25 C.

B1: reference MAGE-3 TCR (disulfide linked soluble heterodimeric form) (TCR, V domains shown)
V domain 1: KQEVTQIPAALSVPEGENLVLNCSFTDSAIYNLQWFRQDPGKGLTSLLLIQSSQREQTSGRLNASLDKSSGRSTLYIAASQPGDSATYLCAVRPGGAGSYQLTFGKGTKLSVIP
V domain 2: KAGVTQTPRYLIKTRGQQVTLSCSPISGHRSVSWYQQTPGQGLQFLFEYFSETQRNKGNFPGRFSGRQFSNSRSEMNVSTLELGDSALYLCASSPNMADEQYFGPGTRLTVTE
B1 returned a koff in experiment [1] of 0.2 s⁻¹. The T½ (binding half-life) in experiment [2] came to 3 s.
